From the supplement of paper PMC6757056
± gives the standard deviation of the averaged measurements.

B1: library; a variant is named by its letters at N, in order (parent)
chain: GCUGUCACCGGUGUAUUACCCUAGUGGUCGACCGGUCUGAUGAGUCUNNNNNNAGACGAAACAGC

Columns and labels:
hypoxanthine [1] = variants of: B1; test: FACS-Seq fitted mean relative fluorescence mCherry/BFP without ligand (log10 relative fluorescence); ligand: hypoxanthine (xanthine aptamer); higher = higher reporter protein expression; details: HEK293T, ligand present: no
Protocol: (§1)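 Hammerhead (sTRSV) ribozyme switch libraries with a ligand aptamer grafted on stem I and a randomized N4-6 loop II, cloned into the 3' UTR of mCherry and transiently transfected into HEK293T cells; RNA-Seq 72 h post transfection with ligand added 1 h before transfection; RNA read count / plasmid DNA read count normalized to the non-cleaving sTRSVctl (x100), log10; sequences with >100 DNA reads. FACS-Seq: lentiviral library sorted into 6 bins after 48 h ligand, log-normal fit mean of mCherry/BFP scaled to controls. Printed sequences are partial switch sequences.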

hypoxanthine [2] = variants of: B1; test: normalized RNA/DNA level with ligand (relative to sTRSVctl = 100) (log10 (% of sTRSVctl)); ligand: hypoxanthine (xanthine aptamer); higher = less ribozyme self-cleavage, higher mRNA level; details: ligand concentration (+) RNA-Seq: 5 mM, HEK293T, reporter: mCherry (pCS4076), ligand present: yes
Protocol: as §1

hypoxanthine [3] = variants of: B1; test: normalized RNA/DNA level without ligand (relative to sTRSVctl = 100) (log10 (% of sTRSVctl)); ligand: hypoxanthine (xanthine aptamer); higher = less ribozyme self-cleavage, higher mRNA level; details: HEK293T, reporter: mCherry (pCS4076), ligand present: no
Protocol: as §1

hypoxanthine [4] = variants of: B1; test: FACS-Seq fitted mean relative fluorescence mCherry/BFP with ligand (log10 relative fluorescence); ligand: hypoxanthine (xanthine aptamer); ligand concentration (+) FACS-Seq: 5 mM; higher = higher reporter protein expression; details: HEK293T, ligand present: yes
Protocol: as §1

Row | Variant | FACS-Seq fitted mean (log10) (hypoxanthine [1]) | normalized RNA/DNA level with ligand (log10) (hypoxanthine [2]) | normalized RNA/DNA level without ligand (log10) (hypoxanthine [3]) | FACS-Seq fitted mean (log10) (hypoxanthine [4])
1 | GCUGUCACCGGUGUAUUACCCUAGUGGUCGACCGGUCUGAUGAGUCUUAAGACAGACGAAACAGC | 0.419 ± 0.024 | 1.87 ± 0.05 | 1.82 ± 0.035 | 0.507 ± 0.024
2 | GCUGUCACCGGUGUAUUACCCUAGUGGUCGACCGGUCUGAUGAGUCUUAAGAGAGACGAAACAGC | 0.312 ± 0.071 | 1.833 ± 0.013 | 1.528 ± 0.011 | 0.422 ± 0.032
3 | GCUGUCACCGGUGUAUUACCCUAGUGGUCGACCGGUCUGAUGAGUCUUAAGAAAGACGAAACAGC | 0.349 ± 0.3 | 1.91 ± 0.025 | 1.68 ± 0.011 | 0.395 ± 0.051
4 | GCUGUCACCGGUGUAUUACCCUAGUGGUCGACCGGUCUGAUGAGUCUGAAGAAAGACGAAACAGC | 0.4206 ± 0.0035 | 1.9256 ± 0.00044 | 1.677 ± 0.013 | 0.5245 ± 0.001
5 | GCUGUCACCGGUGUAUUACCCUAGUGGUCGACCGGUCUGAUGAGUCUGAAGACAGACGAAACAGC | 0.249 ± 0.014 | 1.921 ± 0.0023 | 1.63 ± 0.026 | 0.505 ± 0.069
6 | GCUGUCACCGGUGUAUUACCCUAGUGGUCGACCGGUCUGAUGAGUCUGAAGAGAGACGAAACAGC | -0.121 ± 0.02 | 1.79 ± 0.022 | 1.27 ± 0.032 | 0.521 ± 0.037
7 | GCUGUCACCGGUGUAUUACCCUAGUGGUCGACCGGUCUGAUGAGUCUCAACUAAGACGAAACAGC | 0.494 ± 0.084 | 1.93 ± 0.029 | 1.709 ± 0.011 | 0.695 ± 0.016
8 | GCUGUCACCGGUGUAUUACCCUAGUGGUCGACCGGUCUGAUGAGUCUCAACUUAGACGAAACAGC | 0.257 ± 0.007 | 1.95 ± 0.043 | 1.873 ± 0.0032 | 0.377 ± 0.026
9 | GCUGUCACCGGUGUAUUACCCUAGUGGUCGACCGGUCUGAUGAGUCUAAACUUAGACGAAACAGC | 0.777 ± 0.048 | 1.92 ± 0.011 | 1.856 ± 0.0063 | 0.674 ± 0.075
10 | GCUGUCACCGGUGUAUUACCCUAGUGGUCGACCGGUCUGAUGAGUCUAAACUGAGACGAAACAGC | 0.227 ± 0.039 | 1.822 ± 0.0094 | 1.43 ± 0.051 | 0.46 ± 0.021
11 | GCUGUCACCGGUGUAUUACCCUAGUGGUCGACCGGUCUGAUGAGUCUUAACUAAGACGAAACAGC | 0.0691 ± 0.014 | 1.921 ± 0.0071 | 1.879 ± 0.0092 | -0.0104 ± 0.0014
12 | GCUGUCACCGGUGUAUUACCCUAGUGGUCGACCGGUCUGAUGAGUCUUAACUGAGACGAAACAGC | 0.142 ± 0.042 | 1.896 ± 0.018 | 1.64 ± 0.017 | 0.31 ± 0.084
13 | GCUGUCACCGGUGUAUUACCCUAGUGGUCGACCGGUCUGAUGAGUCUAAACGUAGACGAAACAGC | 0.362 ± 0.036 | 1.877 ± 0.0019 | 1.63 ± 0.043 | 0.519 ± 0.03
14 | GCUGUCACCGGUGUAUUACCCUAGUGGUCGACCGGUCUGAUGAGUCUUAACGGAGACGAAACAGC | 0.07847 ± 0.00013 | 1.82 ± 0.083 | 1.376 ± 0.0076 | 0.473 ± 0.081
15 | GCUGUCACCGGUGUAUUACCCUAGUGGUCGACCGGUCUGAUGAGUCUUAACGUAGACGAAACAGC | 0.145 ± 0.021 | 1.914 ± 0.01 | 1.61 ± 0.038 | 0.365 ± 0.051
16 | GCUGUCACCGGUGUAUUACCCUAGUGGUCGACCGGUCUGAUGAGUCUAAAGAAAGACGAAACAGC | 0.0245 ± 0.07 | 1.9 ± 0.028 | 1.715 ± 0.0039 | 0.207 ± 0.017
17 | GCUGUCACCGGUGUAUUACCCUAGUGGUCGACCGGUCUGAUGAGUCUAAAGAGAGACGAAACAGC | -0.112 ± 0.064 | 1.8 ± 0.025 | 1.32 ± 0.042 | 0.451 ± 0.045
18 | GCUGUCACCGGUGUAUUACCCUAGUGGUCGACCGGUCUGAUGAGUCUGAACUAAGACGAAACAGC | 0.557 ± 0.024 | 1.873 ± 0.012 | 1.815 ± 0.0032 | 0.182 ± 0.072
19 | GCUGUCACCGGUGUAUUACCCUAGUGGUCGACCGGUCUGAUGAGUCUGAACUUAGACGAAACAGC | 0.731 ± 0.013 | 1.91 ± 0.11 | 1.8654 ± 0.0014 | 0.616 ± 0.025
20 | GCUGUCACCGGUGUAUUACCCUAGUGGUCGACCGGUCUGAUGAGUCUCAAGAAAGACGAAACAGC | 0.513 ± 0.021 | 1.89 ± 0.03 | 1.7 ± 0.044 | 0.45 ± 0.091
21 | GCUGUCACCGGUGUAUUACCCUAGUGGUCGACCGGUCUGAUGAGUCUCAAGAGAGACGAAACAGC | 0.342 ± 0.095 | 1.86 ± 0.036 | 1.57 ± 0.03 | 0.473 ± 0.018
